Data from patent US20110230406A1 (ADVANCED TECHNOLOGIES AND REGENERATIVE MEDICINE, published 2011).
No end group written: not given here.

B1: phage displaying the peptide of SEQ ID NO: 13 on the pIX minor coat protein (peptide)
peptide: AGSTCIPSMTPLCPS
modifications: cysteine pairing not given here; also: displayed on phage pIX minor coat protein
notes: not shown: pIX minor coat protein of the phage that carries the peptide
B2: phage displaying the peptide of SEQ ID NO: 14 on the pIX minor coat protein (peptide)
peptide: AGRECLPQFGLPLCPD
modifications: cysteine pairing not given here; also: displayed on phage pIX minor coat protein
notes: as for B1
B3: phage displaying the peptide of SEQ ID NO: 6 on the pIX minor coat protein (peptide)
peptide: AGRDSFNLLTSSPLPST
modifications: also: displayed on phage pIX minor coat protein, junction not given here
notes: as for B1
B4: phage displaying the peptide of SEQ ID NO: 20 on the pIX minor coat protein (peptide)
peptide: AGTLCGVDDYTGLTGCLA
modifications: cysteine pairing not given here; also: displayed on phage pIX minor coat protein
notes: as for B1
B5: phage displaying the peptide of SEQ ID NO: 8 on the pIX minor coat protein (peptide)
peptide: AGSWCTHPAIGCLS
modifications: cysteine pairing not given here; also: displayed on phage pIX minor coat protein
notes: as for B1
B6: phage displaying the peptide of SEQ ID NO: 18 on the pIX minor coat protein (peptide)
peptide: AGRLCHATVDGVAVGCLT
modifications: cysteine pairing not given here; also: displayed on phage pIX minor coat protein
notes: as for B1
B7: phage displaying the peptide of SEQ ID NO: 9 on the pIX minor coat protein (peptide)
peptide: AGSPCSPGQLPLCPA
modifications: cysteine pairing not given here; also: displayed on phage pIX minor coat protein
notes: as for B1
B8: phage displaying the peptide of SEQ ID NO: 1 on the pIX minor coat protein (peptide)
peptide: AGLPLQSMSRLSYDSLS
modifications: also: displayed on phage pIX minor coat protein, junction not given here
notes: as for B1
B9: phage displaying the peptide of SEQ ID NO: 16 on the pIX minor coat protein (peptide)
peptide: AGPDCRLSPLQPAVCVW
modifications: cysteine pairing not given here; also: displayed on phage pIX minor coat protein
notes: as for B1
B10: phage displaying the peptide of SEQ ID NO: 12 on the pIX minor coat protein (peptide)
peptide: AGASCSPGLHPLCPG
modifications: cysteine pairing not given here; also: displayed on phage pIX minor coat protein
notes: as for B1
B11: phage displaying the peptide of SEQ ID NO: 10 on the pIX minor coat protein (peptide)
peptide: AGLQCSPPLPLYCEP
modifications: cysteine pairing not given here; also: displayed on phage pIX minor coat protein
notes: as for B1
B12: phage displaying the peptide of SEQ ID NO: 17 on the pIX minor coat protein (peptide)
peptide: AGAHCLRDHMGLTSCIP
modifications: cysteine pairing not given here; also: displayed on phage pIX minor coat protein
notes: as for B1
B13: phage displaying the peptide of SEQ ID NO: 19 on the pIX minor coat protein (peptide)
peptide: AGTVCPPDLTGLTAACYY
modifications: cysteine pairing not given here; also: displayed on phage pIX minor coat protein
notes: as for B1
B14: phage displaying the peptide of SEQ ID NO: 22 on the pIX minor coat protein (peptide)
peptide: AGRSCYREPSTMLYACTA
modifications: cysteine pairing not given here; also: displayed on phage pIX minor coat protein
notes: as for B1
B15: phage displaying the peptide of SEQ ID NO: 21 on the pIX minor coat protein (peptide)
peptide: AGIRCPVDAIGLTANCSY
modifications: cysteine pairing not given here; also: displayed on phage pIX minor coat protein
notes: as for B1
B16: phage displaying the peptide of SEQ ID NO: 7 on the pIX minor coat protein (peptide)
peptide: AGYRCSELPLYCST
modifications: cysteine pairing not given here; also: displayed on phage pIX minor coat protein
notes: as for B1
B17: phage displaying the peptide of SEQ ID NO: 11 on the pIX minor coat protein (peptide)
peptide: AGPRCPPMHFSVCLS
modifications: cysteine pairing not given here; also: displayed on phage pIX minor coat protein
notes: as for B1
B18: phage displaying the peptide of SEQ ID NO: 5 on the pIX minor coat protein (peptide)
peptide: AGYRRPIQPGPEAVSLL
modifications: also: displayed on phage pIX minor coat protein, junction not given here
notes: as for B1
B19: phage displaying the peptide of SEQ ID NO: 15 on the pIX minor coat protein (peptide)
peptide: AGSVCLAQYSATPLCPH
modifications: cysteine pairing not given here; also: displayed on phage pIX minor coat protein
notes: as for B1
B20: phage displaying the peptide of SEQ ID NO: 2 on the pIX minor coat protein (peptide)
peptide: AGPPGPYIAASAFLALK
modifications: also: displayed on phage pIX minor coat protein, junction not given here
notes: as for B1

Experiments:
[1] = biological target: T1, biotinylated BMP-2 (R&D Systems, Item number 355-BM/CF) (human, UniProt P12643 283-396, biotinylated (sites not given)); experiment: phage ELISA, biotinylated BMP-2 captured on streptavidin-coated wells, HRP anti-M13 antibody, luminescence
T1 construct: Bought protein, biotinylated, captured on streptavidin plates (phage ELISA) or streptavidin donor beads (ALPHA); also called bone morphogenic protein-2

[2] = biological target: T2, human serum albumin (human, UniProt P02768 25-609); experiment: phage ELISA, HSA-coated wells, HRP anti-M13 antibody, luminescence
T2 construct: Cross-reactivity control coated at 5 micrograms/mL; also called HSA
Description: (§1) 96-well black ELISA plates were coated with streptavidin (Rows A through D), hIgG (Rows E and F) and human serum albumin (Rows G and H), at a concentration of 5 micrograms/mL in PBS. Plates were incubated overnight at 4° C. Plates were washed 3 times with TBST using a plate washer. To the streptavidin-coated wells in rows C and D, 100 microliters of a 4 micrograms/mL solution of biotinylated-BMP-2 (R&D Systems, Minneapolis, Minn., Item number 355-BM/CF), was introduced and allowed to sit at room temperature for 30 minutes. To all other wells, 100 microliters of PBS was introduced. The plates were again washed 3 times with TBST using the plate washer. The wells were then blocked with 250 microliters of a 3% dehydrated milk suspension in TBST and allowed to sit at room temperature for a minimum of 1 hour. Using phage concentrations determined by the phage titrations, dilutions of the phage stock solutions were performed in a separate 96-well plate to result in phage concentrations of 10¹⁰, 10⁹, 10⁸, 10⁷, 10⁶ and 10⁵ phage/well. After blocking, the ELISA plate was washed 3 times with TBST and 100 microliters of the phage dilutions were introduced to the respective ELISA plates and allowed to sit at room temperature for a minimum of 1 hour. The ELISA plate was again washed 3 times with TBST using the plate washer and 100 microliters of an HRP-conjugated Anti-M13 Phage Mab (1:5000 dilution in PBS) was introduced to each well. The plates were allowed to sit at room temperature for 1 hour after which time the plates were washed 3 times with TBST. Next, a POD HRP-substrate was introduced to each well. The luminescence was read using a luminometer set with a gain of 150.

[3] = biological target: T1, biotinylated BMP-2 (R&D Systems, Item …); experiment: mutant phage ELISA titration on BMP-2 by the procedure of Example 3
Description: as §1, with “To” for “96-well black ELISA plates were coated with streptavidin (Rows A through D), hIgG (Rows E and F) and human serum albumin (Rows G and H), at a concentration of 5 micrograms/mL in PBS. Plates were incubated overnight at 4° C. Plates were washed 3 times with TBST using a plate washer. To the streptavidin-coated wells in rows C and D, 100 microliters of a 4 micrograms/mL solution of biotinylated-BMP-2 (R&D Systems, Minneapolis, Minn., Item number 355-BM/CF), was introduced and allowed to sit at room temperature for 30 minutes. To”
The respective custom oligonucleotide was obtained from Integrated DNA Technologies. The oligonucletides were inserted into the pIX gene using standard protocols. First, the oligonucletides were phosphorylated using T4 polynucleotide kinase. Next, the phosphorylated oligonucletides were annealed to the ssDNA template. Using the Kunkel method, the annealed DNA was ligated using T4 DNA ligase and T7 DNA polymerase. The resultant DNA was isolated using isopropanol precipitation and a gel was run to confirm the reaction. Lastly, electro-competent E. coli cells were transformed with the purified DNA and were plated out onto 2xYT/Tet/Xgal agar plates and allowed to grow overnight to isolate single colonies. An aliquot of the transformed cells was allowed to grow overnight at 37° C. while shaking in 50 mL 2xYT/tet media. The phage were then PEG precipitated following the procedure in Example 1. A phage titration was performed to determine the concentration of phage for the ELISA assay as described in Example 2. ELISA assays were performed following the procedure in Example 3.

[4] = biological target: T1, biotinylated BMP-2 (R&D Systems, Item …); experiment: phage ELISA titration, biotinylated BMP-2 captured on streptavidin-coated wells, HRP anti-M13 antibody, luminescence
Description: as §1

T1 sequence (P12643 283-396 limits assumed): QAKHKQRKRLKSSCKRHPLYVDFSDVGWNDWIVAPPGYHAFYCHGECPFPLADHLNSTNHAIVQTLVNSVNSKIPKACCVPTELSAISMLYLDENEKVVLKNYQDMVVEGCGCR

Binder	binding result [1]	binding result [2]	binding result [3]	binding result [4]
B1	binds	no binding (tested: 10^9 phage/mL)		
AGRDSFNLSSSSPLPST [SEQ ID NO: 30]			no binding (tested: 1.00E+10 phage/well)	
B2	binds	no binding (tested: 10^9 phage/mL)		
B3		no binding (tested: 10^9 phage/mL)		
B4	binds	no binding (tested: 10^9 phage/mL)		
B5	binds	no binding (tested: 10^9 phage/mL)		
B6	binds	no binding (tested: 10^9 phage/mL)		
AGRDSFNLLTSSSSPST [SEQ ID NO: 31]			binds	
B7	binds	no binding (tested: 10^9 phage/mL)		
B8	binds	no binding (tested: 10^9 phage/mL)		
B9	binds	no binding (tested: 10^9 phage/mL)		
AGYTSFALSSSAESTLP [SEQ ID NO: 26]			no binding (tested: 1.00E+10 phage/well)	
B10	binds	no binding (tested: 10^9 phage/mL)		
B11	binds	no binding (tested: 10^9 phage/mL)		
B12	binds	no binding (tested: 10^9 phage/mL)		
AGRDSFNLLTSSPLSSS [SEQ ID NO: 32]			binds	
B13	binds	no binding (tested: 10^9 phage/mL)		
B14	binds	no binding (tested: 10^9 phage/mL)		
B15	binds	no binding (tested: 10^9 phage/mL)		
B16				binds
B17	binds	no binding (tested: 10^9 phage/mL)		
B18	binds	no binding (tested: 10^9 phage/mL)		
B19	binds	no binding (tested: 10^9 phage/mL)		
B20	binds	no binding (tested: 10^9 phage/mL)		
